Laboratory results from article PMC2950225.

Target: T1, heat shock factor 1 (human (endogenous in HepG2)), Q00613
T1 chain: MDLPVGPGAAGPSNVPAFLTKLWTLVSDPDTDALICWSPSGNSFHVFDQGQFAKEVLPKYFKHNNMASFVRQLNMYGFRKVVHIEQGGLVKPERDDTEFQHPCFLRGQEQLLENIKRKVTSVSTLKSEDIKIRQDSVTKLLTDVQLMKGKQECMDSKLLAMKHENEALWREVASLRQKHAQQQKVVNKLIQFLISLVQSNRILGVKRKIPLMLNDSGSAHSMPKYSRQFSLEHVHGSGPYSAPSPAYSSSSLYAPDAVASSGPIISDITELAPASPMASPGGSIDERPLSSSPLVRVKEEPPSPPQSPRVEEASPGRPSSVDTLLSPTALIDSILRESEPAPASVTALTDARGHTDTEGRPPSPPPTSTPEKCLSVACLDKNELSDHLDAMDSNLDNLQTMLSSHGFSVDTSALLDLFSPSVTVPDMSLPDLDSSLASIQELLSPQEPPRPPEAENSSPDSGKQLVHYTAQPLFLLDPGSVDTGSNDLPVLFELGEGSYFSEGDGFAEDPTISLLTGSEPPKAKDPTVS
Experiment: cross-linking
Details: remark: other sources report otherwise

- stoichiometry N: 3
B1: heat shock factor 1, Q00613 1-529 (natural protein)
chain: MDLPVGPGAAGPSNVPAFLTKLWTLVSDPDTDALICWSPSGNSFHVFDQGQFAKEVLPKYFKHNNMASFVRQLNMYGFRKVVHIEQGGLVKPERDDTEFQHPCFLRGQEQLLENIKRKVTSVSTLKSEDIKIRQDSVTKLLTDVQLMKGKQECMDSKLLAMKHENEALWREVASLRQKHAQQQKVVNKLIQFLISLVQSNRILGVKRKIPLMLNDSGSAHSMPKYSRQFSLEHVHGSGPYSAPSPAYSSSSLYAPDAVASSGPIISDITELAPASPMASPGGSIDERPLSSSPLVRVKEEPPSPPQSPRVEEASPGRPSSVDTLLSPTALIDSILRESEPAPASVTALTDARGHTDTEGRPPSPPPTSTPEKCLSVACLDKNELSDHLDAMDSNLDNLQTMLSSHGFSVDTSALLDLFSPSVTVPDMSLPDLDSSLASIQELLSPQEPPRPPEAENSSPDSGKQLVHYTAQPLFLLDPGSVDTGSNDLPVLFELGEGSYFSEGDGFAEDPTISLLTGSEPPKAKDPTVS
